From patent US20240124575A1 (SIMCERE ZAIMING PHARMACEUTICAL, published 2024)

B1: C33B904 hIgG1 (antibody, V domains shown)
VH: EVQLVESGGGLVQPGRSLRLSCAASGFTFDDYAMHWVRQAPGKGLEWVSGIGWSGGSIVYADSVKGRFTISRDNAKNSLYLQMNSLRAEDTALYYCAKDSPYGDFFDYWGQGTLVTVSS
VL: DIVMTQSPDSLAVSLGERATINCKSSQTVFYSSNNKNYLAWYQQKPGQPPKLLISWASTRKSGVPDRFSGSGSGTDFTLTVSSLQAEDVAVYYCQHYYSTPYTFGQGTKLEIKR
notes: intact human IgG1; variable regions from US20190382481A1; also called C33B3904; C331B904
B2: C33B904 (antibody, human IgG1, kappa, V domains shown)
VH: B1 VH
VL: B1 VL
notes: control antibody, intact human IgG1 form; variable regions from US20190382481A1; also called C33B904 hIgG1; C331B904

Legend:
monkey CD33-His protein = target: T1, monkey CD33-His protein (monkey); test: ELISA on coated monkey CD33-his
T1 construct: also called monkey CD33 protein

[1] = target: T2, human CD33-His (extracellular domain Asp 18-His 259) (human, UniProt P20138 18-259); test: competitive ELISA vs coated S006-NB146-139 3ug/mL; soluble 25ug/ml
T2 construct: range 18-259; bought protein; also called hCD33-his; human CD33 protein; not shown: His tag

[2] = target: T2, human CD33-His (extracellular domain …); test: competitive ELISA vs coated S006-NB146-1 2ug/mL; soluble 25ug/ml
Procedure: VHH antibodies and control antibodies with known epitopes were subjected to epitope classification with competitive ELISA. ELISA plates were coated with 2 μg/mL antibodies according to the method in Example 5.1; the human CD33-his protein was subjected to a gradient dilution from 30 μg/mL, and EC80 values (Tables 26-27) were calculated. ELISA plates were coated with 2 μg/mL antibodies; after 25 µg/mL of antibodies to be tested were added, a human CD33-his protein having an EC80 concentration corresponding to each of the antibodies to be tested was then added for incubation for 2 h. The plates were washed 5 times with PBS, then HRP-labeled anti-His antibodies (purchased from GenScript, Cat. No. A00612) were added for incubation for 1 h, and the plates were washed 5 times. A TMB substrate was added at 50 μL/well and incubated at room temperature for 10 min, then a stop solution (1.0 M HCl) was added at 50 μL/well. OD_{450 nm} values were read using an ELISA plate reader (Insight, purchased from PerkinElmer), and the competition rate between the antibodies was calculated according to the OD_{450 nm} values using a formula. The results are shown in FIGS. 12A-12B, the higher the value of the competition rate, the closer the epitopes to which two antibodies bind.

[3] = target: T2, human CD33-His (extracellular domain …); test: ELISA on coated human CD33-his
Procedure: In order to assay the binding activity of VHH-Fc to human CD33 protein, a human CD33-his protein (purchased from ACROBiosystems, Cat. No. CD3-H5226) was diluted with PBS to make a final concentration of 2 μg/mL, and then added into a 96-well ELISA plate at 100 μL/well. The plate was sealed with a plastic film and incubated at 4° C. overnight, washed twice with PBS the next day, and a blocking solution [PBS+2% (w/w) BSA] was added for blocking at room temperature for 2 h. The blocking solution was discarded, and VHH-Fc antibody or negative control antibody serially diluted from 100 nM was added at 50 μL/well. After incubation at 37° C. for 2 h, the plate was washed 3 times with PBS. A secondary antibody labeled with HRP (horseradish peroxidase) (purchased from Sigma, Cat. No. A0170) was added. After incubation for 1 h at 37° C., the plate was washed 5 times with PBS. A TMB substrate was added at 50 μL/well. After incubation at room temperature for 10 min, a stop solution (1.0 N HCl) was added at 50 μL/well. The OD450 nm values were read on an ELISA plate reader (Multimode Plate Reader, EnSight, purchased from Perkin Elmer). The assay results for the binding of the VHH-Fc to hCD33-his by ELISA are shown in FIGS. 7A and 7B and Tables 11 and 12. […] The IgG control was hIgG1, and the data in the table are OD450 nm values. […]

human CD33-C2-his = target: T3, human CD33-C2-his (human, UniProt P20138 136-260); test: ELISA on coated human CD33-C2-his
T3 construct: expressed in HEK293E; also called hCD33-C2-his; human CD33 protein C2-domain; not shown: His tag

human CD33-his protein [4] = target: T4, human CD33-his protein (human, UniProt P20138 18-259); test: competition ELISA, coated human CD33-his, vs Biotin-C33B904 at EC80; antibody 1.95 nM
T4 construct: range 18-259; bought protein; also called hCD33-his; recombinant human CD33-his; not shown: His tag
Procedure: ELISA plates were coated with 2 μg/mL human CD33-his protein according to the method in Example 5.1; the Biotin-C331B904 antibody was subjected to a gradient dilution from 15 μg/mL, and EC80 values (0.18 μg/mL) were calculated. ELISA plates were coated with 2 μg/mL human CD33-his protein; starting from 40 μg/mL, the VHH antibodies to be tested were diluted in a 1:2 dilution ratio to obtain seven concentrations and added to the ELISA plates, and then Biotin-C331904 antibodies with the EC80 concentrations were added for incubation for 2 h. The plates were washed 5 times with PBS and then […] (purchased from Sigma, Cat. No. S2438) were added for incubation for 1 h, and the plates were washed 5 times. A TMB substrate was added at 50 μL/well and incubated at room temperature for 10 min, then a stop solution (1.0 M HCl) was added at 50 μL/well. OD_{450 nm} values were read using an ELISA plate reader (Insight, purchased from PerkinElmer). Then, analysis was performed by software (GraphPad Prism8), and data were fitted for curve plotting. The results are shown in FIGS. 13A-13B and Tables 28 and 29.

human CD33-his protein [5] = target: T4, human CD33-his protein; test: competition ELISA, coated human CD33-his, vs Biotin-C33B904 at EC80; antibody 500 nM
Procedure: The plate was sealed with a plastic film and incubated at 4° C. overnight, washed twice with PBS the next day, and a blocking solution [PBS+2% (w/w) BSA] was added for blocking at room temperature for 2 h. The blocking solution was discarded, and VHH-Fc antibody or negative control antibody serially diluted from 100 nM was added at 50 μL/well. After incubation at 37° C. for 2 h, the plate was washed 3 times with PBS. A secondary antibody labeled with HRP (horseradish peroxidase) (purchased from Sigma, Cat. No. A0170) was added. After incubation for 1 h at 37° C., the plate was washed 5 times with PBS. A TMB substrate was added at 50 μL/well. After incubation at room temperature for 10 min, a stop solution (1.0 N HCl) was added at 50 μL/well. The OD450 nm values were read on an ELISA plate reader (Multimode Plate Reader, EnSight, purchased from Perkin Elmer). The assay results for the binding of the VHH-Fc to hCD33-his by ELISA are shown in FIGS. 7A and 7B and Tables 11 and 12. […] The IgG control was hIgG1, and the data in the table are OD450 nm values.
ELISA plates were coated with 2 μg/mL human CD33-his protein according to the method in Example 5.1; the Biotin-C331B904 antibody was subjected to a gradient dilution from 15 μg/mL, and EC80 values (0.18 μg/mL) were calculated. […] OD_{450 nm} values were read using an ELISA plate reader (Insight, purchased from PerkinElmer). […]

T2 sequence (P20138 18-259 limits assumed): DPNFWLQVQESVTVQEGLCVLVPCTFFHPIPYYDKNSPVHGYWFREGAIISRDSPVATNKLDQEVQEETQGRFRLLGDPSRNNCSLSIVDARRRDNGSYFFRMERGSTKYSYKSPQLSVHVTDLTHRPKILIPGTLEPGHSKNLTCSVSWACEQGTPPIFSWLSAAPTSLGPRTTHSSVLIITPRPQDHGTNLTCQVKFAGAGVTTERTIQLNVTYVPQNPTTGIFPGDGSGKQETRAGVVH
T4 sequence (P20138 18-259 limits assumed): as above
T3 sequence (P20138 other isoform, or with tags, fused parts or gaps limits assumed): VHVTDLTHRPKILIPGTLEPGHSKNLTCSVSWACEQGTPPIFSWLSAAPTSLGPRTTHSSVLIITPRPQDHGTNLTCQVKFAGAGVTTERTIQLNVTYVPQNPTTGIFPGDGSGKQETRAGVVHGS

Binder | EC50 (read off the curve) (monkey CD33-His protein) [nM] | inhibition rate [1] [%] | inhibition rate [2] [%] | EC50 (read off the curve) [3] [nM] | EC50 (read off the curve) (human CD33-C2-his) [nM] | OD450 (Biotin-C33B904 signal) (human CD33-his protein [4]) | OD450 (Biotin-C33B904 signal) (human CD33-his protein [5])
B1 | ~0.2 | 101 | 100 | ~0.3 | ~0.4 |  | 
B2 |  |  |  |  |  | 2.02 | 0.08
